Results as given in patent publication US9284541B2, “Methods and compositions for protein labeling using lipoic acid ligases” (Massachusetts Institute of Technology, priority 2007, dated 2016).

Columns and labels:
[1] = system: LAP peptide (sequence=GFEIDKVWYDLDA); settings: 1 μM ligase, 200 μM LAP peptide, 500 μM resorufin-AM2, 30° C., 1 hour
Description: These DNA fragments were cloned into expression vectors and expressed in E. coli cells. The ligase activity of the LplA mutants thus prepared in catalyzing formation of resorufin-LAP conjugate was tested as described below. 1 μM Lipoic acid ligase, 200 μM, LAP peptide (sequence=[…]), ligase, 500 μM resorufin-AM2, 2 mM ATP, and 5 mM magnesium acetate were mixed in an Eppendorf tube and incubated at 30° C. for 1 hour. Components in the mixture were analyzed by C18 HPLC and tandem ESI-MS, using 15%→40% acetonitrile linear gradient over 8 minutes containing 0.1% formic acid to resolve resorufin, LAP, and resorufin-LAP conjugate. A mixtures omitting ATP or the lipoic acid ligase was used as a negative control.

FKBP-LAP1 = FKBP-LAP1 (Escherichia coli, UniProt P32099, W38V)
LAP2 [2] = molecular target: T1, LAP2 (Escherichia coli, UniProt P32099, W38V); settings: coumarin ligation
[3] = system: FKBP-LAP1 and FRB-LplAW37V; settings: FRB fusions, ID-PRIME labeling of FKBP-LAP1
Description: Growth media was then removed and the cells were labeled by applying 20 μM coumarin-AM2 in serum-free DMEM at 37° C. for 10 minutes. Excess coumarin was washed out with three changes of fresh DMEM over 60 minutes at 37° C. Cells were imaged in DPBS. Confocal images were acquired at 60× magnification.

LAP2 [4] = molecular target: T1, LAP2; settings: cited from earlier work
LAP-YFP fusion protein = test: Orthogonal resorufin and 7-hydroxycoumarin labeling in living HEK 293T cells; settings: 5 μM resorufin-AM2 and 20 μM 7-hydrozycoumarin-AM2, 10 minutes
Description: After being rinsed with DPBS or HBSS, the transfected cells were incubated with 5 μM resorufin-AM2 and 20 μM 7-hydrozycoumarin-AM2 at 37° C. for 10 minutes.
The cells were washed with the culture medium, cultured at 37° C. for 30 minutes, and observed under a fluorescent microscope.

B1: W37V: E. coli LplA single mutant W37V, coumarin ligase (protein)
chain: STLRLLISDSYDPWFNLAVEECIFRQMPATQRVLFLVRNADTVVIGRAQNPWKECNTRRMEEDNVRLARRSSGGGAVFHDLGNTCFTFMAGKPEYDKTISTSIVLNALNALGVSAEASGRNDLVVKTVEGDRKVSGSAYRETKDRGFHHGTLLLNADLSRLANYLNPDKKKLAAKGITSVRSRVTNLTELLPGITHEQVCEAITEAFFAHYGERVEAEIISPNKTPDLPNFAETFARQSSWEWNFGQAPAFSHLLDERFTWGGVELHFDVEKGHITRAQVFTDSLNPAPLEALAGRLQGCLYRADMLQQECEALLVDFPEQEKELRELSAWMAGAVR
modifications: E. coli
With B1 the “Yield of resorufin-LAP conjugate” value [1] was <5%, the “catalytic rate slower than lipoic acid ligation” value (FKBP-LAP1) was 22 times and the “kcat for coumarin ligation to LAP1” value (FKBP-LAP1; purified FKBP-LAP1) was 0.01 ± 0.001 s⁻¹. For the same molecule, the Km (FKBP-LAP1; read-out: Km of the enzyme for LAP1, coumarin probe, purified FKBP-LAP1) was 681 ± 168 µM, the Kcat for coumarin (LAP2 [2]) was 0.019 s⁻¹ and the “background versus expression level” value [3] was “increased with expression level”. For the same molecule, the “reported kcat for coumarin ligation to LAP2” value (LAP2 [4]) was 0.019 s⁻¹ and the “substrate specificity in cells” value (LAP-YFP fusion protein) was “only catalyzes conjugate of 7-hydroxycoumarin”.
